# Experimental data published in publication PMC7439320 (Science Advances, 2020).
# Values joined by “and” are separate entries in the source; they are usually repeats but may differ in a detail not shown here. Equal entries are not always repeated.
# Target: the molecule itself
# Assay: cryo-EM structure
row,Protein,stoichiometry N
1,Homo sapiens calcium homeostasis modulator 2 (HsCALHM2) (natural protein) MAALIAENFRFLSLFFKSKDVMIFNGLVALGTVGSQELFSVVAFHCPCSPARNYLYGLAAIGVPALVLFIIGIILNNHTWNLVAECQHRRTKNCSAAPTFLLLSSILGRAAVAPVTWSVISLLRGEAYVCALSEFVDPSSLTAREEHFPSAHATEILARFPCKENPDNLSDFREEVSRRLRYESQLFGWLLIGVVAILVFLTKCLKHYCSPLSYRQEAYWAQYRANEDQLFQRTAEVHSRVLAANNVRRFFGFVALNKDDEELIANFPVEGTQPRPQWNAITGVYLYRENQGLPLYSRLHKWAQGLAGNGAAPDNVEMALLPS,11
2,Caenorhabditis elegans calcium homeostasis modulator protein CLHM-1 (CeCLHM-1) (natural protein) MTTSINSVVTVFQNVFTNHGSTLLNGILIATTVGGQSLVRKLTFSCPCAYPLNIYHSLVFMFGPTAALLLIGITVNSTTWKLAHGFFFRVRDTRHSWKTTCVSWIEVLIQSSVAPIAWLFVVFLDGGYYRCYRSHEFCLISDAILCKNSTILNSYASTSSFNKISDNGKYCPPCICVPNPTDASYLEAESQIYAWGLLLFSGVAAFLVITCNRMCDKYTLVQRQYVETYKNVETQKFDAVAKEHASQLAEHNARAFFGQKDWTKRDWDWVSGIPEVNNPLFARLRLIAAEKTQQTMYTPLQLWNDNKGYRIPQPDLQLTQIIVDETKED,9
3,Oryzias latipes CALHM1 truncated at the C terminus (OlCALHM1EM) (domain or fragment) MDKFRMMFQFLQSNQESFMNGICGIMALASAQMYSSFEFSCPCMPEYNYTYGIGLLIIPPIWFFLLGFVLNNNVSVLAEEWKRPTGRRTKDPSVLRYMLCSITQRSLIAPAVWVSVTLMDGKSFLCAFSINLDIEKFGNASLVIGMTETEKLKFLARIPCKDLFEDNEVRVAATRYIKCISQACGWMFLLMMTFTAFLIRAIRPCFTQAAFLKTKYWSHYIDIERKMFDETCKEHAKSFAKVCIHQYFENISGEMQNFHRHQSKDTSDAEEEEKQRSDEDKLLGIKAQEDMNKVL,8
4,Chimeric channel of the TMD from OlCALHM1 and the CTD from HsCALHM2 (OlCALHM1c) (other) MDKFRMMFQFLQSNQESFMNGICGIMALASAQMYSSFEFSCPCMPEYNYTYGIGLLIIPPIWFFLLGFVLNNNVSVLAEEWKRPTGRRTKDPSVLRYMLCSITQRSLIAPAVWVSVTLMDGKSFLCAFSINLDIEKFGNASLVIGMTETEKLKFLARIPCKDLFEDNEVRVAATRYIKCISQACGWMFLLMMTFTAFLIRAIRPCFTQASYRQEAYWAQYRANEDQLFQRTAEVHSRVLAANNVRRFFGFVALNKDDEELIANFPVEGTQPRPQWNAITGVYLYRENQGLPLYSRLHKWAQGLAGNGAAPDNVEMALLPS,8 and 9
